Measurements: the supplement of paper PMC10567573
± gives the standard deviation.

Experiment: protein stability index of a GFP-peptide fusion (GPS, HEK-293T) (PSI 1-6); higher = more stable
[1] = treatment: DMSO, c terminus: a fixed tail appended
[2] = treatment: MLN4924 1 uM, 8 h, c terminus: a fixed tail appended
[3] = treatment: DMSO, c terminus: native
[4] = treatment: MLN4924 1 uM, 8 h, c terminus: native
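Also: 24-mer peptide tiles fused after GFP, lentivirally expressed, FACS-sorted into six equal bins by GFP/DsRed ratio, decoded by Illumina sequencing, PSI is the read-weighted mean bin number.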

Row | Sequence | protein stability index [1] | protein stability index [2] | protein stability index [3] | protein stability index [4]
1 | QDEPRQGCQPEDRRRRIIINVGGI [KCNG1] | 3.92 ± 0.33 | 4.02 ± 0.2 |  | 
2 | EPNTLRAPRVRTAFTMEQVRTLEG [VENTX] | 3.98 ± 0.39 | 3.85 ± 0.21 |  | 
3 | LFDTKHDVYSFAIVIWGVLTQKKP [RIPK4] | 2.49 ± 0.56 | 2.72 ± 0.17 |  | 
4 | EEDIQGPTKADTEKWAEGGGHSRE [CHGB] | 5.52 ± 0.17 | 5.38 ± 0.28 |  | 
5 | TQLKIENNPFAKGFRGSDDMELHR [TBX5] | 4.04 ± 0.25 | 4.02 ± 0.67 |  | 
6 | AGFTGSGPIQLWQFLLELLSDKSC [ETS2] | 2.27 ± 0.19 | 2.12 ± 0.41 |  | 
7 | TRYHLQQARRQQVKQYLSTTLGPK [TFE3] | 3.21 ± 0.15 | 3.29 ± 0.2 |  | 
8 | DCGLNLKQRGYFFLDERLYCESHA [PDLIM4] | 2.43 ± 0.17 | 2.3 ± 0.44 |  | 
9 | LQHEERETRQKKLEVAMEEEGLAD [STK38L] | 5.59 ± 0.28 | 5.56 ± 0.11 |  | 
10 | RRDEQDDDDKGDSKETRLTLMEEV [GOLPH3] | 5.58 ± 0.23 | 5.51 ± 0.2 |  | 
11 | NSPSSPSSSAASSSSPSSSSAVV [RHOBTB2] |  |  | 5.31 ± 0.12 | 5.456 ± 0.023
12 | PVSCCLGLLLESLVPFIVNDNITN [DYNC2LI1] | 2.57 ± 0.94 | 2.79 ± 0.58 |  | 
13 | ELARIVLLRHGMDRLWRPSKVLSL [RAB40B] | 2.54 ± 0.67 | 2.43 ± 0.75 |  | 
14 | LQMEFKAVQQVQRLPFLSSSNLSL [POMP] | 2.15 ± 0.22 | 2.16 ± 0.17 |  | 
15 | VDLNRNFPDLNTYIYYNEKYGGPN [CPN1] | 2.64 ± 0.18 | 2.53 ± 0.52 |  | 
16 | LVLYPTSLAIFSEELDGLCFKGEL [PLEKHN1] | 2.88 ± 0.58 | 2.96 ± 0.23 |  | 
17 | DRPDLSLTVLPKLQARERGEEQVE [C2CD2L] | 5.37 ± 0.13 | 5.27 ± 0.16 |  | 
18 | AIQQMGGQWLGGRQIRTNWATRKP [TIA1] | 2.8 ± 0.29 | 3.21 ± 0.44 |  | 
19 | SSAGSVSPRSTSVTTTSSASVTTT [KRT13] | 5.25 ± 0.15 | 5.23 ± 0.12 |  | 
20 | WRKRFTEQPITDFCSVIRINSTAP [ZNF277] | 2.48 ± 0.55 | 2.23 ± 0.087 |  | 
21 | SSPDLDDMKLIILANRLCLPHLVA [RHOBTB2] | 2.55 ± 0.5 | 2.44 ± 0.19 |  | 
22 | LECEINTYRSLLESEDCKLPCNPC [KRT34] | 3.81 ± 0.16 | 3.94 ± 0.35 |  | 
23 | TEDEKKELENLAAMDLELQKIAEK [CHGB] | 5.47 ± 0.22 | 5.57 ± 0.083 |  | 

Row | Sequence | protein stability index [1] | protein stability index [2] | protein stability index [3] | protein stability index [4]
24 | YSPRRSRGSPRYSPRHSRSRSRT [SRSF1] |  |  | 4.18 ± 0.35 | 4.49 ± 0.26
25 | EEFIEEEDQEEEESTEGKEEGHQ [TRIM63] |  |  | 5.56 ± 0.41 | 5.71 ± 0.27
26 | MLEMVPEKRASAGECLRHPWLNS [SRPK2] |  |  | 3.79 ± 0.34 | 3.85 ± 0.25
27 | VQHQRVHTGEKPYKCLECGKAFSQ [ZNF24] | 3.29 ± 0.55 | 3.66 ± 0.46 |  | 
28 | ETLEGREKAFIAHFQDNLHSVNRD [MED27] | 4.32 ± 0.22 | 4.26 ± 0.2 |  | 
29 | QQIEEQRVQVQVVERAQQVAVQEQ [FLOT1] | 5.17 ± 0.41 | 5.03 ± 0.32 |  | 
30 | DQWTPIAAMLRGQSDVGVAVFENK [KLHL13] | 3.53 ± 0.2 | 3.42 ± 0.2 |  | 
31 | ADFGRLVNLQHLDLLNNKLVTLPV [LRRC59] | 2.3 ± 0.2 | 2.37 ± 0.21 |  | 
32 | DWFSGHLNFQIEHHLFPTMPRHNY [FADS1] | 2.15 ± 0.48 | 2.07 ± 0.25 |  | 
33 | KRLCGLKVEVDMEKIAAEIAQAEE [SMARCE1] | 2.25 ± 0.12 | 3.63 ± 0.37 |  | 
34 | KDWLEGTVRGATGIFPLSFVKILK [NCF4] | 2.49 ± 0.5 | 2.38 ± 0.52 |  | 
35 | PADGWKGERPRSEEDNELNLPNLA [GCH1] | 5.33 ± 0.34 | 5.36 ± 0.35 |  | 
36 | ASGNATQTESGSEEVSSTVHIETF [C10orf62] | 5.11 ± 0.21 | 5.27 ± 0.2 |  | 
37 | TVLTRSLFLGRILSLTSSASRLLT [FANCE] | 2.72 ± 0.13 | 2.81 ± 0.2 |  | 
38 | STGYCWCVLVDTGRPIPGTSTRYE [SMOC2] | 2.64 ± 1.8 | 2.12 ± 0.32 |  | 
39 | DSAELEPGSQTAVKNSNRYDVEMT [FBXO34] | 5.26 ± 0.2 | 5.29 ± 0.2 |  | 
40 | TNEKALEAVFGKYGRIVEVLLMKD [RBMX] | 1.97 ± 0.46 | 2.15 ± 0.29 |  | 
41 | TELSFLVTTHQPTNLVLPSNGSMH [EDNRA] | 2.67 ± 0.33 | 2.44 ± 0.42 |  | 
42 | GGATFLLTAKQLIKSIVEASKGCQ [TRIM63] | 2.87 ± 0.7 | 2.86 ± 0.47 |  | 
43 | RVYDGREILTCGRDGEPEPMQKLQ [RBBP5] | 4.02 ± 0.38 | 3.94 ± 0.31 |  | 
44 | APIDWIEEYTTGMADCILVNSQFT [ALG2] | 2.64 ± 0.25 | 2.81 ± 0.49 |  | 
45 | DWGTPRELTFSYIAFDGVVGSGGR [RTN2] | 1.91 ± 0.22 | 2.43 ± 0.37 |  | 
46 | EIPERRDSGVGASLTRSNRHRLRW [DLC1] | 4.17 ± 0.35 | 4.36 ± 0.32 |  | 

Row | Sequence | protein stability index [1] | protein stability index [2] | protein stability index [3] | protein stability index [4]
47 | NFLACLASFCVETNNGAGFGLSIL [SCAMP3] | 3.02 ± 0.55 | 2.99 ± 0.41 |  | 
48 | IRGPAGNNDCRIYVGNLPPDIRTK [SRSF1] | 3.43 ± 0.25 | 3.38 ± 0.27 |  | 
49 | LLNTLSLAFVGGLPLAYQQTSAFA [TMEM175] | 3.2 ± 0.3 | 2.74 ± 0.42 |  | 
50 | ISLFFLIIYMGSFMLMLLVLGIQV [CDS1] | 3.18 ± 0.23 | 3.33 ± 0.11 |  | 
51 | GSDSVIMTGAYNNFFRMFDRNTKR [PPP2R2C] | 3.22 ± 0.22 | 3.39 ± 0.36 |  | 
52 | AQEQLRPQTPEPVEGRKHVDVQTE [RSPH3] | 5.41 ± 0.31 | 5.34 ± 0.24 |  | 
53 | ERLDELQDKSESLSDNATAFSNRS [VAMP4] | 5.44 ± 0.24 | 5.34 ± 0.088 |  | 
54 | LAQFPNTLLGNPKKRMRYFDPLRN [KCNA1] | 2.45 ± 0.12 | 2.48 ± 0.12 |  | 
55 | ESGVDVNSQNEVNGWTCLHWACKR [ANKRD40] | 3.06 ± 0.22 | 3.31 ± 0.46 |  | 
56 | LCKATSPADALQYLLQFARKPVEA [INTS4] | 2.05 ± 0.28 | 2.12 ± 0.29 |  | 
57 | MVVDFWTWEQTFQELIQEAKPRAT [RTP4] | 2.5 ± 0.49 | 2.2 ± 0.36 |  | 
58 | EHNSSLVSQQTGSPGKQPGENSDC [ZNF8] | 5.25 ± 0.3 | 5.39 ± 0.073 |  | 
59 | EPGKQERDVYLPAGKWRSYKGELF [MYORG] | 3.17 ± 0.087 | 3.2 ± 0.21 |  | 
60 | DFKSCPQGPQGREGLAFLVSCPEG [PWWP2B] | 3.61 ± 0.15 | 3.75 ± 0.16 |  | 
61 | LVVHTGCKDFLCQFCAQRFGRKDH [PLAGL1] | 2.6 ± 0.34 | 2.98 ± 0.091 |  | 
62 | KRANAAFLIGAYAVIYLKKTPEEA [CDC14A] | 2.38 ± 0.57 | 2.21 ± 0.22 |  | 
63 | NQPSGLIRTYLGRSPLVSGDESSL [RHOBTB3] | 3.85 ± 0.25 | 3.84 ± 0.3 |  | 
64 | FQKSHNSLQRWEHLKKVASRYQNN [PRIM1] | 2.46 ± 0.42 | 2.9 ± 0.13 |  | 
65 | SWGWDLGRSRLYHDGKNQPGVAYP [SPSB4] | 2.72 ± 0.29 | 2.56 ± 0.26 |  | 
66 | DRVILSSSTSCLMPSKLFAGLVHV [CRYL1] | 2.27 ± 0.64 | 2.58 ± 0.49 |  | 
67 | FLCLQYRLRGKLRAEIENLHRTFD [MOG] | 2.41 ± 0.57 | 2.18 ± 0.39 |  | 
68 | SQSSTYRGTYEQDGRFEKRQGNPS [ZNF396] | 4.74 ± 0.3 | 4.79 ± 0.31 |  | 
69 | SLENSLREVEARYALQMEQLNGIL [KRT18] | 2.15 ± 0.23 | 2.52 ± 0.26 |  | 

Row | Sequence | protein stability index [1] | protein stability index [2] | protein stability index [3] | protein stability index [4]
70 | AAQFTDFLIPMLEMVPEKRASAGE [SRPK2] | 3.6 ± 0.29 | 3.97 ± 0.29 |  | 
71 | PLQGTDEDAVASADFSSMLSEEEK [TPD52L1] | 5.48 ± 0.58 | 5.69 ± 0.094 |  | 
72 | LRKIIDFIYTAKLSLNMDNLQDTL [KLHL13] | 2.79 ± 0.63 | 2.44 ± 0.78 |  | 
73 | MAAKSQPNIPKAKSLDGVTNDRTA [DHCR7] | 5 ± 0.15 | 5.04 ± 0.16 |  | 
74 | LVSWLPRLNAYRGYCSNQLAAKAL [NET1] | 2.5 ± 1 | 2.1 ± 0.2 |  | 
75 | DSFVVQYEDTNGQPQALLVDGDQS [TNXB] | 5 ± 0.27 | 4.83 ± 0.39 |  | 
76 | DNALWERDRNLLQEDKALWEEEKA [CCDC70] | 5.57 ± 0.32 | 5.05 ± 0.31 |  | 
77 | EKKVLEAGMGKVTSASFGEESTPG [HDAC6] | 5.21 ± 0.23 | 5.18 ± 0.32 |  | 
78 | EPFVLPASSVESTLPVLEASSWKK [FBXO34] | 4.57 ± 0.22 | 4.87 ± 0.2 |  | 
79 | PRGSETERLLTPNPGYGTQAGPSP [MCOLN1] | 4.41 ± 0.18 | 4.79 ± 0.28 |  | 
80 | GDWHSPTLIREKSFGACLREETPR [ELOA2] | 3.61 ± 0.3 | 3.76 ± 0.32 |  | 
81 | RYDHGTFFPMGDEGASSQIGRAAG [HDAC6] | 4.24 ± 0.37 | 4.13 ± 0.22 |  | 
82 | DYGVDPSQFSGTLMRTCERLVKEG [PPTC7] | 3.72 ± 0.42 | 3.79 ± 0.35 |  | 
83 | STAPGLFLVSTHTGEVRTARALLE [PCDHGC5] | 2.5 ± 0.27 | 2.54 ± 0.31 |  | 
84 | LRVWDMFFCEGVKIIFRVGLVLLK [TBC1D10A] | 2.6 ± 0.38 | 2.37 ± 0.29 |  | 
85 | PSSFPSSSSSSSSSCYPLIPSTPE [MAGEA10] | 4.32 ± 0.36 | 4.45 ± 0.13 |  | 
86 | ELRRRRYEYDHWDAAIHGFRETEK [ALKBH7] | 3.5 ± 0.39 | 3.56 ± 0.44 |  | 
87 | EETEVLAHEIERLQMEMKEDDVSF [TRIM35] | 5.43 ± 0.2 | 5.48 ± 0.094 |  | 
88 | VVHRSDEQQHYFNTPFQLSIAPPE [PPTC7] | 3.96 ± 0.28 | 4 ± 0.24 |  | 
89 | QVKFGQQNPRQVAQSEAEKKLKKD [ZC3H15] | 5.37 ± 0.25 | 5.37 ± 0.076 |  | 
